Experimental data reported in article PMC4506093.

Experiments:
[1] = biological target: highly purified 26S proteasome, extracted from transformed HEK cells
[2] = biological target: highly purified 26S proteasome, extracted from transformed HEK cells; remark: listed apart in the source

inhibition of the chymotryptic-like activity (50 micromol/L Suc-LLVY-AMC) of 1 nanomol/L 26S proteasome by IDE from 1 nanomol/L to 50 nanomol/L at 37°C; value at 50 nanomol/L IDE [1]: 55% | inhibition of the tryptic-like activity (50 micromol/L Boc-LLR-AMC) of 1 nanomol/L 26S proteasome by IDE from 1 nanomol/L to 50 nanomol/L at 37°C; value at 50 nanomol/L IDE [1]: 65 to 70% | inhibition of the caspase-like activity (50 micromol/L Z-LLE-AMC, after subtracting IDE's own cleavage) of 1 nanomol/L 26S proteasome by IDE up to 50 nanomol/L at 37°C; value at 50 nanomol/L IDE [2]: 60%
Substance: recombinant IDE expressed in Spodoptera frugiperda (from UniProt P35559 1-1019) (enzyme)
